In general, Kd refers to the concentration at which binding is half-saturated. Lower therefore signals a tighter complex. By koff is commonly meant the first-order rate constant of dissociation. The low end stands for slow dissociation, the high end for fast dissociation. The term kon denotes the second-order rate constant of association. A high value points to faster complex formation.

This note sets out measurements from patent US20250188161A1 (UNIVERSITE CATHOLIQUE DE LOUVAIN, published 2025).

“And” between values parts separate entries of the source, which are not always exact repeats. Equal values may be shown once.

Assay [1] has as its target T1, mouse latent TGF-β1 on transfected HEK-293T cells (mouse, UniProt P04202 30-278; P04202 279-390). Put plainly: cell-based or functional assay.
For another assay, the target named is T2, human latent TGF-β1 (human, UniProt P01137 30-278; P01137 279-390).
T2 construct: signal peptide 1-29 left out; also called human latent TGF-β1 (immobilised / coated protein)
Put plainly: SPR (Biacore 3000), human latent TGFβ1 amine-coupled on CM5, antibody injected. In general terms: SPR reads the build-up and loss of mass on a sensor chip optically.

Assay [2] has as its target mouse TGF-β1 L208A single Ala-mutant on HEK-293T cells (mouse, UniProt P04202 30-278; P04202 279-390). The experiment in a line: Ala-scan, flow cytometry on HEK-293T cells with mouse GARP and HA-tagged single Ala-mutant. The source says: (§1) To perform “Ala-scan” analyses, we co-transfected plasmids encoding mouse or human GARP and the single Ala-mutants of mouse or human TGF-β1 in HEK-293T cells, and analyzed binding by TGF-β1-activating and non-activating mAbs using flow cytometry (FIG. 3C).

Assay [3] addresses mouse TGF-β1 D212A single Ala-mutant on HEK-293T cells (mouse, UniProt P04202 30-278; P04202 279-390). The description is as above.
From the text: as §1

A further assay concerns the target T3, mouse latent TGF-β1 (mouse, UniProt P04202 30-278; P04202 279-390).
T3 construct: signal peptide 1-29 left out; also called murine latent TGF-β1 (immobilised protein)
Put plainly: SPR (Biacore 3000), mouse latent TGFβ1 amine-coupled on CM5 (about 500 RU), antibody at 3-100 nM. How it is done: A CM5 chip was immobilized with approximately 500RU human latent TGFβ1 and mouse latent TGFβ1 in sodium acetate buffer pH4.5 (GE Healthcare, #BR100350) using amine coupling and consuming HBS-EP buffer. The flow was set to 30 μl/min with the “kinject” injection mode and a regeneration injection of 10 mM glycine pH1.5.

Assay [4] has as its target T1, mouse latent TGF-β1 on transfected …. The experiment in a line: flow cytometry, HEK-293T cells co-transfected with mGarp and the HA-tagged TGF-β1 construct. (In general: In flow cytometry, cells or beads pass a laser one at a time.)
Another assay deals with T4, T201A.
T4 construct: co-expressed with GARP; also called mouse TGF-β1 T201A single Ala-mutant on HEK-293T cells
The experiment in a line: Ala-scan, flow cytometry, HEK-293T cells with GARP and the HA-tagged Ala-mutant; residual binding in % of WT.
From the text: as §1

Another assay has as its target T5, G211A.
T5 construct: co-expressed with GARP; also called mouse TGF-β1 G211A single Ala-mutant on HEK-293T cells
Described as above.
From the text: as §1

For a further assay, the target named is T6, G213A.
T6 construct: co-expressed with GARP; also called mouse TGF-β1 G213A single Ala-mutant on HEK-293T cells
The description is as above.
From the text: as §1

In another assay the target is T7, I214A.
T7 construct: co-expressed with GARP; also called mouse TGF-β1 I214A single Ala-mutant on HEK-293T cells
Described as above.
From the text: as §1

Another assay addresses T8, Q215A.
T8 construct: co-expressed with GARP; also called mouse TGF-β1 Q215A single Ala-mutant on HEK-293T cells
Described as above.
From the text: as §1

In the next assay the target is T9, G216A.
T9 construct: co-expressed with GARP; also called mouse TGF-β1 G216A single Ala-mutant on HEK-293T cells
The description is as above.
From the text: as §1

The target in another assay is T10, F217A.
T10 construct: co-expressed with GARP; also called mouse TGF-β1 F217A single Ala-mutant on HEK-293T cells
The assay is described as above.
From the text: as §1

Another assay concerns the target T11, R218A.
T11 construct: co-expressed with GARP; also called mouse TGF-β1 R218A single Ala-mutant on HEK-293T cells
The assay is described as above.
From the text: as §1

A further assay addresses T12, F219A.
T12 construct: co-expressed with GARP; also called mouse TGF-β1 F219A single Ala-mutant on HEK-293T cells
The description is as above.
From the text: as §1

In another assay the target is T13, S220A.
T13 construct: co-expressed with GARP; also called mouse TGF-β1 S220A single Ala-mutant on HEK-293T cells
Described as above.
From the text: as §1

In a further assay the target is T14, G202A.
T14 construct: co-expressed with GARP; also called mouse TGF-β1 G202A single Ala-mutant on HEK-293T cells
The assay is described as above.
From the text: as §1

The target in the next assay is T15, V203A.
T15 construct: co-expressed with GARP; also called mouse TGF-β1 V203A single Ala-mutant on HEK-293T cells
The description is as above.
From the text: as §1

A further assay deals with T16, V204A.
T16 construct: co-expressed with GARP; also called mouse TGF-β1 V204A single Ala-mutant on HEK-293T cells
Described as above.
From the text: as §1

The next assay has as its target T17, R205A.
T17 construct: co-expressed with GARP; also called mouse TGF-β1 R205A single Ala-mutant on HEK-293T cells
The assay is described as above.
From the text: as §1

The target in another assay is T18, Q206A.
T18 construct: co-expressed with GARP; also called mouse TGF-β1 Q206A single Ala-mutant on HEK-293T cells
The assay is described as above.
From the text: as §1

Another assay addresses T19, W207A.
T19 construct: co-expressed with GARP; also called mouse TGF-β1 W207A single Ala-mutant on HEK-293T cells
Described as above.
From the text: as §1

In another assay the target is T20, N209A.
T20 construct: co-expressed with GARP; also called mouse TGF-β1 N209A single Ala-mutant on HEK-293T cells
The assay is described as above.
From the text: as §1

In the next assay the target is T21, Q210A.
T21 construct: co-expressed with GARP; also called mouse TGF-β1 Q210A single Ala-mutant on HEK-293T cells
Described as above.
From the text: as §1

The target in assay [5] is T22, mouse latent TGF-β2 on transfected 293T cells (mouse, UniProt P27090 21-414).
T22 construct: whole, on cells; also called murine latent TGF-β2; HA-tagged TGF-β2
T22 sequence (looked up): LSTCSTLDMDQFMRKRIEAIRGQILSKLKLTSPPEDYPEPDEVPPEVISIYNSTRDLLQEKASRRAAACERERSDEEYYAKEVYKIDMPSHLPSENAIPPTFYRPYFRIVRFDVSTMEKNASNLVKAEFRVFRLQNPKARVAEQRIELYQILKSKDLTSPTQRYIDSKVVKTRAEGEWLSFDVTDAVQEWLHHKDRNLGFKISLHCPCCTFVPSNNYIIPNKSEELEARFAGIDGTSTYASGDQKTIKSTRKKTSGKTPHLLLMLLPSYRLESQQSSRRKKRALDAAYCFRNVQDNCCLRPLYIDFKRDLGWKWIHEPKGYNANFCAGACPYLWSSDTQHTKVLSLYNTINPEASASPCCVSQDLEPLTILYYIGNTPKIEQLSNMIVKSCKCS
Put plainly: flow cytometry, 293T cells transfected with GARP and HA-TGF-β2, GAM-FITC as secondary reagent; expression shown by anti-HA staining. The source says: (§2) Flow cytometry was used to ensure that LMT-12 binds specifically to mouse latent TGF-β1 and not to mouse latent TGF-β2 and mouse latent TGF-β3. Briefly, 293T cells were transfected with plasmids encoding HA-tagged TGF-β1, β2, or β3, with a plasmid encoding GARP. They were then stained with the indicated concentrations of LMT-12 mIgG1 or anti-HA mIgG1 antibody and thereafter with goat anti-mouse coupled to FITC (GAM-FITC) as secondary reagent. Using flow cytometry, histograms were gated on live cells as determined with a viability dye (Bioscience, cat. 65-0865-14).

The target of assay [6] is T23, mouse latent TGF-β3 on transfected 293T cells (mouse, UniProt P17125 24-410).
T23 construct: whole, on cells; also called murine latent TGF-β3; HA-tagged TGF-β3
T23 sequence (looked up): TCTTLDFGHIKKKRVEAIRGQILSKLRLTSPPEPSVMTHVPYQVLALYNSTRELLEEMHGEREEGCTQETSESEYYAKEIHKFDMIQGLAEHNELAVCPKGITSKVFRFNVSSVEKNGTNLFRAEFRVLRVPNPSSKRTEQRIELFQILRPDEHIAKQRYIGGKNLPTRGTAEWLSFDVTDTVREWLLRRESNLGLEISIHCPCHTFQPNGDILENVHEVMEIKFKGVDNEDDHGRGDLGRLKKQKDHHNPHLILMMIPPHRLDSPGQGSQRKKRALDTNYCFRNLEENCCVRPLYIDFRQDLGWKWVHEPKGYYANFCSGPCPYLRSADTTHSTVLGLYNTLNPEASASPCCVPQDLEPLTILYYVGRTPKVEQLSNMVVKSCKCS
Put plainly: flow cytometry, 293T cells transfected with GARP and HA-TGF-β3, GAM-FITC as secondary reagent; anti-HA staining gives only a low tail.
From the text: as §2

T1 sequence (P04202 30-278, chain 1 of 2): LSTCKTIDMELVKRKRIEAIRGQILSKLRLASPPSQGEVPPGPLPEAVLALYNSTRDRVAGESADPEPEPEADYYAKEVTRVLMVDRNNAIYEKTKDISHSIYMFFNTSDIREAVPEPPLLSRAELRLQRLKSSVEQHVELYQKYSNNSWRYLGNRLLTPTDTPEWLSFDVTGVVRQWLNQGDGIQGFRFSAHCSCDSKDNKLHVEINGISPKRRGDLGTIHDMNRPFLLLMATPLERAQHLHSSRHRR
T1 sequence (P04202 279-390, chain 2 of 2): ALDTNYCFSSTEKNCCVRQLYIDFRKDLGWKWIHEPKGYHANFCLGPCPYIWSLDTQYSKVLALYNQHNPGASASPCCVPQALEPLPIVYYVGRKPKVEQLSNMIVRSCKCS
T3 sequence (P04202 30-278, chain 1 of 2): as the sequence (P04202 30-278, chain 1 of 2) above
T3 sequence (P04202 279-390, chain 2 of 2): as the sequence (P04202 279-390, chain 2 of 2) above
T18 sequence (HA-tagged latent TGF-β1, as listed by the source Q206A Q206A limits assumed): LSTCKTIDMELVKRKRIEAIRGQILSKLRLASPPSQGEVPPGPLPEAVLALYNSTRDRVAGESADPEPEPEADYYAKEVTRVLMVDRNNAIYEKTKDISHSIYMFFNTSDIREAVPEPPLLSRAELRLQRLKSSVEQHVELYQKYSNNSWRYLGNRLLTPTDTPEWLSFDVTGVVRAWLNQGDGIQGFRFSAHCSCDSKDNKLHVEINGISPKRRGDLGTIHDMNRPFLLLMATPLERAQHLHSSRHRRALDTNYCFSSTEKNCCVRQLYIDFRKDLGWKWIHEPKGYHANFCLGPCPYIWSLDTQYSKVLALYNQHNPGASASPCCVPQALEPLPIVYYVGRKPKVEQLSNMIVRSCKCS
T2 sequence (P01137 30-278, chain 1 of 2): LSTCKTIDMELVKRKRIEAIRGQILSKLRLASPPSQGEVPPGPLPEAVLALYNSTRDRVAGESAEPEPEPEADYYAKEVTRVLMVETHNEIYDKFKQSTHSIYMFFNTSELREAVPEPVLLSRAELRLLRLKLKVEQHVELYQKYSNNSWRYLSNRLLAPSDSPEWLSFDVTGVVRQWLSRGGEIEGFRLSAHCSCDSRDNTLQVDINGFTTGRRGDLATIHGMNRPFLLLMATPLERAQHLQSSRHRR
T2 sequence (P01137 279-390, chain 2 of 2): as the sequence (P04202 279-390, chain 2 of 2) above, with S75A counted along it
T19 sequence (HA-tagged latent TGF-β1, as listed by the source W207A W207A limits assumed): as the sequence (HA-tagged latent TGF-β1, as listed by the source Q206A Q206A limits assumed) above, with A177Q, W178A counted along it
T21 sequence (HA-tagged latent TGF-β1, as listed by the source Q210A Q210A limits assumed): as the sequence (HA-tagged latent TGF-β1, as listed by the source Q206A Q206A limits assumed) above, with A177Q, Q181A counted along it
T15 sequence (HA-tagged latent TGF-β1, as listed by the source V203A V203A limits assumed): as the sequence (HA-tagged latent TGF-β1, as listed by the source Q206A Q206A limits assumed) above, with V174A, A177Q counted along it
T16 sequence (HA-tagged latent TGF-β1, as listed by the source V204A V204A limits assumed): as the sequence (HA-tagged latent TGF-β1, as listed by the source Q206A Q206A limits assumed) above, with V175A, A177Q counted along it
mouse TGF-β1 D212A single Ala-mutant on HEK-293T cells, sequence (P04202 30-278 D212A, chain 1 of 2): as the sequence (P04202 30-278, chain 1 of 2) above, with D183A counted along it
mouse TGF-β1 D212A single Ala-mutant on HEK-293T cells, sequence (P04202 279-390, chain 2 of 2): as the sequence (P04202 279-390, chain 2 of 2) above
T7 sequence (HA-tagged latent TGF-β1, as listed by the source I214A I214A limits assumed): as the sequence (HA-tagged latent TGF-β1, as listed by the source Q206A Q206A limits assumed) above, with A177Q, I185A counted along it
T17 sequence (HA-tagged latent TGF-β1, as listed by the source R205A R205A limits assumed): as the sequence (HA-tagged latent TGF-β1, as listed by the source Q206A Q206A limits assumed) above, with R176A, A177Q counted along it
T13 sequence (HA-tagged latent TGF-β1, as listed by the source S220A S220A limits assumed): as the sequence (HA-tagged latent TGF-β1, as listed by the source Q206A Q206A limits assumed) above, with A177Q, S191A counted along it
T11 sequence (HA-tagged latent TGF-β1, as listed by the source R218A R218A limits assumed): as the sequence (HA-tagged latent TGF-β1, as listed by the source Q206A Q206A limits assumed) above, with A177Q, R189A counted along it

B1: LMT-2 (6D12) (antibody, V domains shown)
VH: EVQLVESGGGLVQPGGSLRLSCAASGFTFSNYGVHWVRQAPGKGLEWVSHISAAGISRYYADAVKGRFTMSRDNGKNTLYLQMNGLKSEDTAVYYCAKDRIRSSYEYDSWGQGTQVTVSS
VL: LPVLTQLSSMSGSPGQTVTITCTGSSSNIGGGYYLSWYQQLPGTAPKLLIYNANNRASGVPNRFSGSKSGNLASLTITGLQAEDEADYYCGCYDSSLSTGYVFGGGTKLTVL
notes: also called LMT-2 (hIgG1)
B1: in assay [1], the “EC50, TGF-β1 luciferase reporter assay in HEK-293T cells expressing GARP:TGF-β1” value is 76 ng/ml and 0.5 nM. The binding result in the assay with human latent TGF-β1 is recorded as “no binding (tested: six concentrations, 3 nM to 100 nM)”; in [2], “no binding”; in assay [3], “no binding”; in the assay with T201A, “binds”; with G211A, “binds”; with G213A, “binds”. For the same molecule, the binding result with I214A, with Q215A, with G216A, with F217A, with R218A and in the assay with F219A was “binds” in each case. The binding result with S220A, with G202A, with V203A, with V204A, in the assay with R205A and with Q206A was “binds” in each case. The binding result in the assay with W207A, with N209A and in the assay with Q210A was “binds” in each case. The “Amplitude R0 (RU)” value in the assay with mouse latent TGF-β1 amounted to 241 RU. In the assay with mouse latent TGF-β1, this molecule gave a Kd of 0.633 nM. In addition, in the assay with mouse latent TGF-β1, the koff is 0.000718 s⁻¹. In the assay with mouse latent TGF-β1, this molecule returned a kon of 1.14e+06 M⁻¹ s⁻¹. For the same molecule, the “% binding relative to WT TGF-β1 (100 %)” value in assay [4] worked out at 100%.

B2: LMT-12 mIgG1 (antibody, V domains shown)
VH: EVQLVESGGGLVQPGGSLRLSCAASGFTFSSYYMYWVRQAPGKGLEWVSGTSIGGGSTWYADSVKGRFTISRDNAKNTLYLQMNNLKSEDTAVYYCAKDLNSRSYKGMGDWGQGTQVTVSS
VL: QPALTQLSSMSGSPGQTVTITCTGSSSNIGGGYYLNWYQQLPGAAPKLVIYNANNRASGVPDRFSGSKSGNLASLTITGLQAEDEAVYFCGCYDSSLSSVVFGGGTHLTVL
notes: also called mAb LMT-12
Turning to B2, the binding result in assay [5] and in assay [6] was “no binding (tested: 20.00 µg/ml)” each time.
